Experiment: soluble on expression in E. coli; label from the status in PepcDB or PDB records

Sequence	soluble on expression in E. coli
MGSDKIHHHHHHMQLKRMGYAQTKIRQGPNHRDGEQVTFLDVKQFFGLGHVRVGSWVSSEESLIAANMVFDALADLALVLGLPPKVMGLRERLNLAFGHGGQQGVMAHYSPSERTLALAKHAGAGAVAHEFWHAFDHHLSDTAMDIGRSQKARFASELWLNDVPLLCHPLNDRLEALFQSVLLSGDGEHPSDYVRRAIQLDKTYGRLYFSHPSELMARAFEAAIESEGDFEQVDTDSGEIHLLPLINPYLVTGTLEDIKTENKGELLPKFGSWGAMPQGAFPTPIHRQAIMKAMAGYFRPLGRALAKTLS	not soluble
MRLGVNVDHVATVRQARRTFEPSPVFAALIAQQAGADQITLHLREDRRHIQDRDLELIKELITIPVNLEMAPTEEMREIALRVKPDRITLVPERREEITTEGGLDVVSLKEKLKEYLKPIKEAGIEVSLFIEAQKEQIDASVEVGADAIEIHTGRYANLWNEHRFEEAKEELNRIKEAAIYAKEKGLKVYAGHGLTYHNVKDFVRELKGYVEELNIGHSIVANAVIFGFERAVKEMLNLIKT	soluble
MGSDKIHHHHHHMNRRRIALLLPRLGRYGGVEQFAWHLAEALAQRGHEVDFICARKEGEAPAGVRPVVVGRKGGLKVLKALHYLVQAERMRRRGDYDLTVSFGKTWEQDILRVGGGPLSTFWQLSGEAWPKGPRRTLKCLTRHLSPYNWLTHIIERRQYDGHCKIICVSDAVRGWTLQAFPSLAATPPEVIYNRPQLERFTPAPDTGRAACRERFSIPAGHVAIGTASSNFILKGVGHLIHALSLLPPHFMLLVAGGRNPGPFMDVARKLGVSDRVRFLGRVDDMPAFYNAIDVFALNTFYDACSNAVLEALACGTPALSTTRNGSSRFLPEAWVTDAPDDPADLAARLAALASEERTEGFAWPEDVKAGIPAWVERIEREMESGIRRG	not soluble
MNFDEIDKTFGTKNRDQGYDLLKARLDKGDRSVEVLWRLAQVIHEKSACVPKAQRKASVTEGLKFAEEAVQKDPNHFKALKWNAVLTGQATEYMATKEKLECSKKFKELLDKTLAKEPKDTAVLHLRGRYKYSVASLTWLEKKLAATFYQQPPSHSYEEANEDFLAAYKVNPKWMENTFYVSKCYVAIKDKANARKYLTEVCDIEPYSDAEQEFADDAKQMLSKL	soluble
MGILSDKDIAYLKDLFGKELKRKVKIVFFKTEDKTRCQYCEITEQVLEELVSVDPKLELEIHDFDSDKEAVEKYQVEMVPATILLPEDGKDYGIRFYGVPSGHEFGTLIQDIITVSEGKPQLSEESIQKLQSLEEPIRISVFVTPTCPYCPRAVLMAHNMAMASDKIIGEMIEANEYWELSEKFGVSSVPHIVVNRDPSKFFVGAYPEKEFINEVLRLAKG	soluble
LFTESAKAVLAIAQEEAKYFRHQSVGSEHLLLALVLEPNGIAGKTLRQLNTDTEDIREEIEHLSGYGTMQSPMGNNNLYLPYSPRAKQIFAYAGDEAKRLGAQKIGTEHLLLGLLRDEEILASRILVNLGLSLSKMRQLLLKKMG	not soluble
TRAFQEGSYSSNIKNAAKFYTGLIQLQNPEFGDSSSIDDALPQTDTFISASRANSNIDVILPRVESFALAAKGERSKGVMVLGVDPESENAYSHISDKLVQGEFIASGQNAVLVGGGLAQYLRLKIGDELVLYGAGYRGQTAAGLYRVAGILHFPLQQLDSQLVYMPLDTAQTLYSLDKQVTAWVLNTSNLRVLPSVIEQLKRDYGNSVAVKGWQELSPELSQQIALDKAG	not soluble
MGSDKIHHHHHHMTWSATWRLSLELRQLRYLVGVVDAGSVSRAAQSLHVAQPALSAQIARLEEELGARLLIRSVRGVVPTEAGTAVLRQARLILKQVDAIAELAHEADADPTGSVSLGLPWTVRSVVGLPLLHQVRERLPQVRLEIIEGPSPALAMQTAQGKLDLAVVFENTPDNSLVLKPLATESLLLVGQRGSLVGRHNLKLEELAGLPLLMLSRPNGVREDIERQCAKRGIRLKIVAEINAPSLLIDAVRGGLGYSVLPACGIEQACRDGLLDAITLEGGSMQRTAHLGTSKLFALSRAAEHTAALLQESVAHAIGDRRWQATSPNEAD	not soluble
MTYEAFVELVERLWEEVPEDFKRGLQGVHVFPEAKPEPGLEGVWRLGEYLDPGPPSAFGGFEDLGRHIALYYGSFLEVAGEGFDWEAEVWETMLHELRHHLESLAGRDDLVQEDLRRLDAFRRGGPSGEG	soluble
MVHFIFIALRSMRFMRRLVRNLQYLLLPITSSLLFI	soluble
MEAWIAEAKALLAALVAVPSVSAEGRALREGAEKVAEVLEGLGLRAELHEGYGPPVVFAEGGEGERTLLFYNHYDVQPPDPLELWDTDPFVLAEREGAWYARGAHDYKGELVVRVVALRRFQEKHGFLPRVKFVVEGEEEVGSPHLEAYVADKRDLLKAEAILWEAGGVDAKGRPYLYAGLKGIVALELRVRTAAFDLHSSYGAVVENPIYRLSRALASLRDEEGRVLIPGFYAKVRPLTPLEMEVLAQIPDESEALREAFGVRDFLGGARNLDFNQRLYAEPCVNFNGFHAGYGGPGSKTVLPAEARAKLDFRLVPDQDPEEVPELLRRHLEAQGFHDVEVVVLEKGERPARSDLAHPFVALARRALEEAFGERPVLYPNMAGSGPMHPFLHHLKAPAVGLGVGYPGSRVHSPNEHIRVRDFERGVQALLRLLELFFLGR	soluble
PCFALTGPEAGSDAGGIPDQGVVCYGMYDGEEVLGVRVSWNKRYITLAPVATVLGLAFKLQDPDGLLGDKKDVGITCALIPADHDGVEIGERHDPLGSAFMNGPTRGEDVFIPMDWLIGG	not soluble
MIPKIIHYVWVGHNPKSKLIQECIATWKEKLPDYQFIEWNEDNFDMHENKYIEQAYKAKKWAFVSDYIRAKAIYEQGGIYLDTDVRVIASLTPLLDNKAFIGFENNNYLSAAIFGAEKGHPFMQDILDYYKDRNFEYDVNNQMAGVNSVSVTDMLIDRYGLKIGNKEQELKEGIHVYPDGVLCNPSVNSLSIHLFTGTWMNGKHSFKHKLVTFLKRHINTPKEAGLYAKWIRLEHHHHHH	soluble
MFNCLGMGNRDFIEGASGATWVDLVLEGDSCLTIMANDKPTLDVRMINIEASQLAEVRSYCYHASVTDISTVARCPTTGEAHNEKRADSSYVCKQGFTDRGWGNGCGFFGKGSIDTCAKFSCTSKAIGRTIQPENIKYKVGIFVHGTTTSENHGNYSAQVGASQAAKFTVTPNAPSVTLKLGDYGEVTLDCEPRSGLNTEAFYVMTVGSKSFLVHREWFHDLALPWTSPSSTAWRNRELLMEFEGAHATKQSVVALGSQEGGLHQALAGAIVVEYSSSVMLTSGHLKCRLKMDKLALKGTTYGMCTEKFSFAKNPVDTGHGTVVIELSYSGSDGPCKIPIVSVASLNDMTPVGRLVTVNPFVATSSANSKVLVEMEPPFGDSYIVVGRGDKQINHHWHKAGSTLGKA	not soluble
MGSDKIHHHHHHMSKAPDFEGLAMFAKVAEERSFAAAARVLGLSVATVSRGVSRLEERLGARLFNRTSRRLALTDFGHRLAERASRLYRDAEDAENAARELSASPRGLVRLAVPMSFGLRWVAPLLPDFFKLYPDVSIDMHLSDAVVDLIGEGFDAALRIAVLPDSSLVARRLCSIAPFIVAAPSYLARHGRPSTPRDLDAHHCLGYAYRPRQDVWHFSNAAGDEEVVTPSGPLRVTNSDALVPTVLAGIAIAELPEFIASEYLADGRLQAILTDWTLPRGALYFVTPSARARPAKVEAVAGFMAAHLSRPSWQPINP	not soluble
MSLISEVVVTTRKNNRDNKAPIGVYFKDKKVIMHLFSGSHTYENLLTEDYFSVNVVPPIEIAKAVLDDEDDYLYYNDIPYLKSSYYAIFYKVIERKFVDREDKFGKNRLMILEGEEIKRIYLNNIPKPYNRADGLLVEIAVIYSRLANKNIKINEDDKKEMINDIRKYFSIIKKVGGREHKQLAEIMLRNLNLLEGHHHHHH	soluble
MGSDKIHHHHHHMVTGASGFVGSALCCELARTGYAVIAVVRRVVERIPSVTYIEADLTDPATFAGEFPTVDCIIHLAGRAHILTDKVADPLAAFREVNRDATVRLATRALEAGVKRFVFVSSIGVNGNSTRQQAFNEDSPAGPHAPYAISKYEAEQELGTLLRGKGMELVVVRPPLIYANDAPGNFGRLLKLVASGLPLPLDGVRNARSLVSRRNIVGFLSLCAEHPDAAGELFLVADGEDVSIAQMIEALSRGMGRRPALFTFPAVLLKLVMCLLGKASMHEQLCGSLQVDASKARRLLGWVPVETIGAGLQAAGREYILRQRERRK	not soluble
MSLKKSDATGGEVASAEPIAKIPAPAGKAWTETFSVTPDGGYLLGNPDAPIKLIEFGALSCSHCAEFSEKGFPKLRDEYIASGRVSYELRLFLLNALDMPAVLLATCGAPEAVIPLSEQFWAWQPNMFSNLQKDEAAFQQISNLPAEKRFAGIAQLGGLSEFFASRGIAAAQGATCLADTAKATRLATVNDQWGKEYDITGTPTFFLNGSKTGVATWAELEPMLQKAGAREGHHHHHH	soluble
MGSDKIHHHHHHRVAQCCAIIDRSKIVIGFSDHGLYCIEISRQLLIPVGGEKENKQRCVETVEYDEAEQLLMMIVGPAKDRHVRIVPSAALDGRDLKWIKVNDTKGCHLLAVGTNNPGGRAGFFAVAFKKSVTIFQIDRSEKRHKKWKDLAMPGTPQSIAIFNGRLYVGFSHSFRSWSLVGVDSSPVGSGDASGAVLQHISLVNMEDTSLQFLNQQTSYEAKLIVNVPGSPDEYLLVFNMIGLYVNEMGRRSRLPEVMFPTQAKYFAYHEPYLCVFSENEVDIFNVTLAEWVQTINLRSAKPLSGDGILSTCLCNDSPIFVLLQN	not soluble
MSLSNSLLPPNASGLERDIEQVIVQSTDLPIRIKDLWNPYSCHLSLLPWLAWALSVDEWDDRWPEHIKRQVVQDSFDVHRFKGTPYAVQKALDSLNIKTHLREWWEPDGSQEPGTMTVVALINENLTDDDNGLITEAMLEQVTRVIHTAKRGVIHFDVELGISLDETLGFSGAIGPSIAEIDFSSDFLPIVPEKGSADMAFSAALYGIGSADFLADMSGVVPDESSSHVFVCGGLAGISASWLEFEGDLEGHHHHHH	soluble
MGSDKIHHHHHHMMKSLPHMIGNEIKRIRKEKKMTQKELCDGICSQAEISKIENGRNSPTIDLLQQISKRLRVPLSLLFRDQLESDAFREADNHLSSLFREQKYQEMRLELLRTDAIHHNEIRLLKAYFTILLEVKTEKIDYRTASALLSRLTDQEDIWYESPKMFIRIKMAISNLHVENEQYHLAEKVYEELEELTYDTEELKKQLIKVYYNHSQLLTYEKKYKAGLKITEKGLSYSLSLNDASFIAHFYYQRGYYHEVMLGDDSSPAQRDYTISYALFRAFHLHTYEEIVLKGKERFLLFTF	not soluble
PADFNGTWEMLSNDNFEDVMKALDIDFATRKIAVHLKQTKVIVQNGDKFETKTLSTFRNYEVNFVIGEEFDEQTKGLDNRTVKTLVKWDGDKLVCVQKGEKENRGWKQWIEGDLLHLEIHCQDKVCHQVFKKKN	soluble
MAHHHHHHMTMRRFGGALTRPLGGMRRVVVGPNGSVPEAGCVPTFETRRRKRLRLGGSLTGDWVASTESLSGSCVREEEARLLCFEKYGFVHKPLTMASWSDFLQELARFEFRWRLLPCVGGVTVLNIVERNCGDENVLCDLRTSCGSAPFAQFFECLGAFVQGTSEKRCIMFCDPNGLEQSLEIRAKRHLSPALGEGFEDEKPILPTLAQYDCRGTLVDLVLKDMKTDVLRPIISDISMQALNYAFLVSIPLFLRQADVGVRNTDLVSKEQMRHFRFAWCFLRRESMMTPVEIGELDTLLPP	not soluble

From the DeepSol protein solubility set
